Data set [1] can be described thus: Circular dichroism (CD) spectral analysis of peptide conformation, % helicity. The data set is classed as physicochemical. On the procedure:
According to this example, circular dichroism (CD) experiments were performed to determine the conformation changes of VIP in phospholipid micelles, pH and temperature changes, and in aqueous solutions. CD spectra were recorded on a JASCO J-700 spectropolarimeter using a fused quartz cell of 1 cm pathlength. Spectra in 0.15 N saline (pH 6.8) and 5 mM Hepes buffer (pH 7.4) were measured at a peptide concentration of 4 μM and at a lipid concentration of 1 mM. The effects of CaM, pH (6.8 or 7.4) and temperature (25° C. or 37° C.) on VIP conformation were also studied. The conformation of VIP fragments was likewise studied. All measurements were carried out at room temperature (˜25° C.) unless otherwise noted. A bandwidth of 1.0 nm and a step resolution of 0.5 nm were used to collect an average of 9 accumulations/sample at the […] (200-260 nm wavelength). The peptide spectra shown have the background buffer scans, and empty vesicle scans subtracted and were smoothed using the noise reduction function. The temperature during spectral analysis was maintained by using a circulating water bath attached to a jacket surrounding the fused quartz CD cell. The percent helical characterization of VIP was determined by a method of Haghjoo et al., Peptide Research 9 (6):327-331 (1996): % helicity=[−(θ208+4000)/29 000]*100 and are reported in table 1.
According to the example, CD was used to determine the conformation of VIP in saline, Hepes buffer and phospholipid micelles at room temperature and at 37° C. The CD spectra analysis was performed after 13 μg of human VIP incubated with 1 ml PEG-DSPE (1 μmol) micelles for 30 min at room temperature as determined by preliminary studies. A bandwidth of 1.0 nm and a step resolution of 0.5 nm were used to collect an average of 9 accumulations/sample at near UV range (200-260 nm). The temperature was maintained during spectral analysis by a circulating water bath attached to a jacket surrounding the fused quartz CD cell. The evaluation of VIP molecule conformation in SSM by using circular dichroism was successful because the distortion caused by spherical particles was eliminate due to the small size and univesicular structure of the SSM. […] The phospholipid micelles were ideal in our study of VIP conformation since it provided a hydrophobic core similar to the phospholipid bilayer of the SSL. Moreover, both the negative charge, and the hydrophilic layer provided by the PEG mimic the conditions of our SSL and make it possible to infer the VIP conformational results.
According to this example, the method of example 4 was repeated to determine the conformation of VIP in saline and phospholipid micelles plus calmodulin (CaM). CD spectra measurements were performed after 13 μg/ml of VIP was incubated with 1.0 μmol/ml of phospholipid micelles for 30 min followed by 10^−10 M CaM incubated with VIP in phospholipid micelles for 2 h at 4° C. (conjugation paper). A bandwidth of 1.0 nm and a step resolution of 0.5 nm were used to collect the average of 9 accumulations/sample at near UV range (200-260 nm).
According to this example the method of example 4 was repeated to determine the conformation of VIP fragments in saline and phospholipid micelles. CD spectra measurements were performed after incubation of VIP fragments with phospholipid micelles, at a molar concentration equivalent to VIP (i.e. 9 μg/ml for VIP10-28 fragment and 6 μg/ml for VIP1-12 fragment), for 30 min. A bandwidth of 1.0 nm and a step resolution of 0.5 nm were used to collect the average of 9 accumulations/sample at near UV range (200-260 nm). Specifically, CD spectra of human VIP fragment (1-12) and (10-28) in the presence of phospholipid micelles are shown in FIG. 5. […] These effects correlate well with the % helicity of VIP fragments determined in saline and in the presence of phospholipids (Table 1). […]

Data set [2] concerns mice with collagen-induced arthritis (CIA). Conditions: repeated intraperitoneal administration, 5.0 nmol, Delgado et al. 2001; cited from earlier work.

The source of these data is US20110142884A1, “Materials and Methods for Making Improved Micelle Compositions” (The Board of Trustees of the University of Illinois, priority 2002, published 2011).

As to vasoactive intestinal peptide [VIP], the “Conformation from CD spectrum in the presence of phospholipid micelles (SSM)” value in data set [1] (phospholipid micelles (SSM), room temperature) is “predominantly α-helix conformation”. Moreover, the “% Helicity (in the presence of) Phospholipids” value in data set [1] (37° C.) is on record as 67%; in data set [1] (room temperature), 27%. Besides, the “% Helicity (in the presence of) Saline” value in data set [1] (saline, 37° C.) is recorded as 2%; in data set [1] (saline, room temperature), 5%. Besides, in data set [1] (saline, room temperature), the “Conformation from CD spectrum in saline” value is recorded as “primarily a random coil structure”. Moreover, the “effect on CIA” value in data set [2] is listed as “ameliorates CIA”.
